Assay results taken from the supplement of paper PMC9170038.

Tested on: MS2 coat protein
Test: apparent KD of MS2 coat protein; designed switch direction (-1 OFF switch, 1 ON switch): -1; higher = weaker reporter binding
Method in brief: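 RNA switches sharing common flanks were transcribed by stalled E. coli RNA polymerase on Illumina chips. A doubling series of SNAP-549-labelled MS2 coat protein, from 0.7 or 1.5 nM to 3 µM, was applied in Tris-HCl pH 7.5 buffer with KCl, MgCl2, BSA, DTT, tRNA and Tween-20. Each step lasted 0.8–1.5 h at the bottom of the series and 10–20 min at the top. Normalised cluster fluorescence was curve-fitted, giving apparent KD as the per-design median over clusters.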

[1] = Eterna round: R95, input ligand: microRNA oligo, concentration not stated
[2] = input ligand: microRNA oligo, concentration not stated
[3] = Eterna round: R95, input ligand: FMN 200 uM
[4] = Eterna round: R95, input ligand: none

| Sequence | apparent KD of MS2 coat protein [1] [nM] | apparent KD of MS2 coat protein (input ligand: FMN 200 uM) [nM] | apparent KD of MS2 coat protein [2] [nM] | apparent KD of MS2 coat protein (input ligand: none) [nM] | apparent KD of MS2 coat protein [3] [nM] | apparent KD of MS2 coat protein [4] [nM] |
| --- | --- | --- | --- | --- | --- | --- |
| AAAAAACAAGGAUAUACGCAGGAGGGUUGUCUUAAUUUUUGACAUGAGGAUCACCCAUGUAGAAGGUGUUAAAA [JR_Exclusion2_Sub013] (puzzle: Exclusion 2) | 220 |  |  |  |  |  |
| AAAAAACAUGAGGAUCACCCAUGUGAGGAUAUCUGUAUUCAAUCCUCGGAUUGAAUACAGAGAAGGCACAUGGG [Ex1: 609] (Eterna round: R96, puzzle: Exclusion 1) |  | 48.5 | 29.2 | 27.8 |  |  |
| AAAAAGCGAGGAUAUGCAUAAGGACCCGGGAGGGAAGUCGAACAUGAGGAUCACCCAUGUAGAAGGCGCAAAAA [Exclss2-IV] (puzzle: Exclusion 2) | 11.5 |  |  |  | 16 | 15.4 |
| AAAAAGGUAGGAUAUACGAAAAAAAAGGGUAGAAAAAAAACACAUGAGGAUCACCCAUGUAGAAGGACCAAAAC [salish99_ex2_r3_046] (puzzle: Exclusion 2) | 33.4 |  |  |  | 66.7 | 30.2 |
| AAAACAAAAGGAUAUACAUGAGGAUCACCCAUGUGGCAUAAAAUCGCCGCUAAACCAUGUAGAAGGUUUGCGAA [EX3 A.6] (Eterna round: R97, puzzle: Exclusion 3) |  | 25.5 |  | 19.6 |  |  |
| AAAACGGACCGAGGAUAUACACGAUAUCUUUGCGUAGAAGGCGGACCGGCGACUUGAGGAUCACCCAAGUGUCCUCUUUUGCGG [Mutated MS2 EX1.4] (Eterna round: R96, puzzle: Exclusion NG 1) |  | 323 | 110 | 175 |  |  |
| AAAACUCACGUAGGAUAUCAUUCCUUAAGGUAGUGAGAAGGACGUGACUACAUGUCCUUGAACAUGAGGAUCACCCAUGUAGGC [Cerama] (Eterna round: R96, puzzle: Exclusion NG 1) |  |  | 36.5 |  |  |  |
| AAAAGAACAGGAUAUUCGGGAAAUAACAUGAGGAUCACCCAUGUUAACGCGGGUGAGAACGAAGAAGGGUUCUAAA [Atusceon] (puzzle: Exclusion 5) | 96.4 |  |  |  | 114 | 93.1 |
| AAAAGAAGUGUUAGGAUAUGUGGAAGUAGAAAGACACAGAAGGGACAUGAGGAUCACCCAUGUGGCCAAAGAAC [Vecedies] (puzzle: Brourd's mod of Exclusion 4) | 15.6 |  |  |  | 17.3 | 15.5 |
| AAAAGAUGAGGAUAUAUAUGGAAUCCAAGGCAUGUGCUCUCACAUGAGGAUCACCCAUGUAGAAGGCAUCUGCC [Laxetera] (puzzle: Exclusion 2) | 9.79 |  |  |  |  |  |
| AAAAGGCGAGGAUAUACAUGAGGAUCACCCAUGUGAAAGAAAGAAAGAAAGAAGAAAGGUAGAAGGCGCAAAGA [Mine, also!] (puzzle: Exclusion 3) | 42.6 |  |  |  | 83.6 | 67 |
| AAAAGGUCAGGAUAUCCAAGAAAAGAAAAGAAAAGAAAAGAGGAGAAGGGACAUGAGGAUCACCCAUGUAAAAG [Default title] (puzzle: Exclusion 4) | 42.7 |  |  |  | 39 | 38 |
| AAAAUGCAAGGAUAUCGCGAUAAAUACAUGAGGAUCACCCAUGUGAUUACGUGGGCACGGCGAGAAGGUGCUAAAA [Amadius] (puzzle: Exclusion 5) | 26.1 |  |  |  | 119 | 33.8 |
| AAAAUUGUAGGAUAUUAGGCAGACAACAUGAGGAUCACCCAUGUCCGUGAUCUUAGGCACUGAGAAGGAUAAGCCU [Eternabot (Original) Solution 23] (Eterna round: R97, puzzle: Exclusion 5) |  | 147 |  | 159 |  |  |
| AAACAAACGGGAGGAUAUCGACAUAUUCAACUGCGAGAAGGCCCAAAAGACAUGAGGAUCACCCAUGUAAACCGGGUGAGAAAU [Rimabi] (Eterna round: R96, puzzle: Exclusion NG 1) |  | 934 | 185 | 215 |  |  |
| AAACCCUGAGGAUAUACAUAACAACAAACCCUCACGUGCCAACAUGAGGAUCACCCAUGUAGAAGGCAGGCCAA [Mod R3 Insanara 6 - Jieux - Exclusion 2] (Eterna round: R97, puzzle: Exclusion 2) |  | 64.3 |  | 18.7 |  |  |

| Sequence | apparent KD of MS2 coat protein [1] [nM] | apparent KD of MS2 coat protein (input ligand: FMN 200 uM) [nM] | apparent KD of MS2 coat protein [2] [nM] | apparent KD of MS2 coat protein (input ligand: none) [nM] | apparent KD of MS2 coat protein [3] [nM] | apparent KD of MS2 coat protein [4] [nM] |
| --- | --- | --- | --- | --- | --- | --- |
| AAACCGCAUGUCAGGAUAUCCAGUCCGACUAGCUAGGAGAAGGGACAUGAGGAUCACCCAUGUUUCAUGGCUCG [Anveonat] (puzzle: Brourd's mod of Exclusion 4) | 19.6 |  |  |  | 37.6 | 19 |
| AAACCGGGCGCACCUCAGUCACAUGAGGAUCACCCAUGUUCUGAGGAUAUGCAUCCAAACGGAACGCAGAAGGCGGAACGUAAC [Bibidianer] (Eterna round: R96, puzzle: Exclusion NG 3) |  | 10.5 | 8.52 | 13 |  |  |
| AAACCUAUAGGAUAUACAUGAGGAUCACCCAUGUUGCGAUUUUUUAGGUAACAGAUCCGUAGAAGGGUAGGGCA [Retebi] (puzzle: Exclusion 3) | 28.3 |  |  |  |  |  |
| AAACUAGUAGAGGAUAUUCCAGGCAGUGUUUGAGAAGAAGGCUACACAUGAGGAUCACCCAUGUGGCCUGGUGG [Riedbi] (puzzle: Exclusion 6) | 12.8 |  |  |  |  |  |
| AAAGAACAUGAGGAUCACCCAUGUGAGGAUAUGUAAGGAUAGGACCGAAGAAGCGAGAACAGAAGGCACAGAGG [JR_Exclu1_Sub069] (puzzle: Exclusion 1) | 23.4 |  |  |  | 35 | 18.6 |
| AAAGAGCGAGGAUAUACGUAUCGGUGCGGCCAGCCGAUGUGACAUGAGGAUCACCCAUGUAGAAGGCGCAGAAA [Excls2-IX] (puzzle: Exclusion 2) | 23.4 |  |  |  |  |  |
| AAAGGACGAGGAUAUACAUGAGGAUCACCCAUGUAAAAAGCAUAAUAAAAUAACUUAUGUAGAAGGCGUCCAAA [Mat - Exclusion 3 - Eli mod - D91] (Eterna round: R96, puzzle: Exclusion 3) |  |  | 18.5 |  |  |  |
| AAAGUGUGAGGAUAUUAGUUGUACGUCAAUAGACGUAUAAGUGAGAAGGCACAUGAGGAUCACCCAUGUUCCUG [Omei Ex4 Mod of Mat's R95 mod of Omei v5] (Eterna round: R97, puzzle: Exclusion 4) |  | 99.7 |  | 21.9 |  |  |
| AAAUAAAGGUAGGAUAUCGAUUUUAAUUAAUAUCGAGAAGGGUCAACAUGAGGAUCACCCAUGUCAGCAUGUAA [LRO-Excl6-01-Rocketman] (Eterna round: R97, puzzle: Exclusion 6) |  | 59.9 |  | 64.2 |  |  |
| AAAUAACAAGCAAGAUCCUACAUGAGGAUCACCCAUGUGCUCGUCUUAAUAAGUACUAUCACGAAAGUGAUAGUACA [Mat - Sensor v3 - turn-off var 1 - Eli Mod - D60] (puzzle: Sensor v3, turn-off variant 1) | 383 |  |  |  | 383 | 437 |
| AAAUAGAAUGAGGAUAUCGAAUUAUAUAUAGUACGAGAAGGCAUUACAUGAGGAUCACCCAUGUUUUGUUGGGA [JR_Ex6_Sub001] (Eterna round: R97, puzzle: Exclusion 6) |  | 73 |  | 27.6 |  |  |
| AAAUAGCUUGAGGAUAUUGGACUGGAUUCAGUGCGAGAAGGCAAGACAUGAGGAUCACCCAUGUUGUGUUGGGA [EX6 #10] (Eterna round: R97, puzzle: Exclusion 6) |  | 180 |  | 91.6 |  |  |
| AAAUAGUAGCAGGAUAUGAGUAUUAUUGGAAGCUCAGAAGGGCUGACAUGAGGAUCACCCAUGUGUUAUGUCGG [Eternabot (L1) Solution 54] (Eterna round: R97, puzzle: Exclusion 6) |  | 49.1 |  | 177 |  |  |
| AAAUAGUCAGGAUAUACAUGAGGAUCACCCAUGUAAACUUUUAGUUUAAUUUGAAUGUGUAGAAGGGACAUAAA [Ex3 #50] (Eterna round: R97, puzzle: Exclusion 3) |  | 31.4 |  | 29.3 |  |  |
| AAAUCACAUGAGGAUCACCCAUGUCAGGAUAUCGACUGAACAGCUUCGGCUGUUCAGUCGAGAAGGGACAAUUA [Brourdxlusion 1 - Jieux - Exclusion 1] (Eterna round: R97, puzzle: Exclusion 1) |  | 133 |  | 43.2 |  |  |
| AAAUCAGAGGAGGAUAUGGUAUAGGAAAUGGUGCCAGAAGGUUUCACAUGAGGAUCACCCAUGUCAAAUAGUGA [EX6 #62] (Eterna round: R97, puzzle: Exclusion 6) |  | 49.2 |  | 60.4 |  |  |
